Source: US20100227772
Read-outs that look alike come from different tables or passages of the source.

Tested on: Antennapedia homeodomain (YPWM motif + homeodomain, Antp residues 297-364 in plasmid pAop3)
Conditions: FCCS

Substance | Kd (average of 10 saturation curves, single curve of FIG. 2 gives 6.3 nM) [nM] | Kd (average of 3 saturation curves, single curve of FIG. 3 gives 8.6 nM) [nM]
HB1 (36 bp) | 3.6 | 
BS2 (16 bp) |  | 5.1
